# Measured values published in the DeepSol protein solubility set.
# Experiment: soluble on expression in E. coli; label from the status in PepcDB or PDB records
row,Sequence,soluble on expression in E. coli
1,MSLKGDDIEEGKELVATHIAEGLYHDGKFVGYVKRAHDVDVNLNAHTMFENLVVKASGVLSAIQMLRHSKIDPAEIDYVIECSEEACGDINQRGGGNFAKSIAEIAGLQNATGSDTRGFCAAPTHALIQAAALVKAGIHKNVMVVAGGASAKLGMNAKDHVKKGLPVLEDVVGGFAVLVSENDGVNPVIRTDLTGKHTVGTGSSPQAVMTALITSGLDRANLKITDVDVYSVEMQNPDITKPAGAGDVPEANYKMIGALAVKRGDLEKKELKDFVSNKGLPGWAPTQGHIPSGAPYIGFLIDDLTTGNRNRAMIVGKGSLFLGRMTNLFDGVSFIAERNTGVTEETSGISKDEIKKIIAESMKKLALDMLEEGHHHHHH,not soluble
2,MDLDQLDLNPRITAAVKRGRLKSVKEILCYSGPDLQRLTGLPSHDVQCLLRAASLHLRGSRVLSALHLFQQKESFPEQHQRLSLGCPVLDQFLGGGLPLEGITGLAGCSSAGKTQLALQLCLAVQFPRQYGGLEAGAVYICTEDAFPSKRLWQLIAQQRRLRTDAPEELIEKIRFSNHIFIEHAADVPHFVVSSTFRPQPSGRSSCSRWGPHCED,soluble
3,LEQYVVVSNYKKQENSELSLQAGEVVDVIEKNESGWWFVSTSEEQGWVPATYLEAQN,soluble
4,MSLAEPVLGDDGLYQLDWYLQSFLDLKEDLEGATAKGKRFAILWGLKGCPYCKKLHDVHMRDPAIESYIRDNFEIVHLNHIGAREVTDFDGSKLSEKAFAQAYGIRFTPSLQFFPESADGLAAKKPQDREVARMPGLLEPPEFLAMFKYVREKGYQSMPFTDWLKREGHHHHHH,soluble
5,MTVESVNPETRAPAAPGAPELREPPVAGGGVPLLGHGWRLARDPLAFMSQLRDHGDVVRIKLGPKTVYAVTNPELTGALALNPDYHIAGPLWESLEGLLGKEGVATANGPLHRRQRRTIQPAFRLDAIPAYGPIMEEEAHALTERWQPGKTVDATSESFRVAVRVAARCLLRGQYMDERAERLCVALATVFRGMYRRMVVPLGPLYRLPLPANRRFNDALADLHLLVDEIIAERRASGQKPDDLLTALLEAKDDNGDPIGEQEIHDQVVAILTPGSETIASTIMWLLQALADHPEHADRIRDEVEAVTGGRPVAFEDVRKLRHTGNVIVEAMRLRPAVWVLTRRAVAESELGGYRIPAGADIIYSPYAIQRDPKSYDDNLEFDPDRWLPERAANVPKYAMKPFSAGKRKCPSDHFSMAQLTLITAALATKYRFEQVAGSNDAVRVGITLRPHDLLVRPVARHHHHHH,soluble
6,MSNEISDRKVSDTLKDKKPMSLLLLGTDTGEFGRSYKGRTDTIMMMVINPKTNKTTVVSLPRDMKVNLPDYPDYSPAKINAAYTYGGVDETVKTIKKYFNVPTDAYVMVNMGGLEKAIDQVGGVTVKSPLTFDYEGYHFTKGVTYHMNGKKALAFSRMRYDDPRGDYGRQERQRLVIMALLKSSISYKTVVNQTFLNSISKQTMTNLTFDNMVALAQNYRHATDNVTTDHAQGQGDWENGVAYESVSQAECQRISNKLRAALGLKPETLKTGELEHHHHHH,soluble
7,MGSDKIHHHHHHMKGAVTTDVEAGGLRGRMYASRATSDVRPRADAPTFVLIHGIGVSHRYLVRLHHVLAGVADTISIDLPGFGSTPRPDRQLMVADQAAFIHDVLDQAGVGLRVLVGHSMGAQFVLEAALQRPEQVPHVVLMGPVVDVRRRTLPRQILALTKDALLHETPGSNALVFSDYLRCGPLWYLKELRVMMNYRTEERIRGLTTPVMILRGASDPIATGEWCRILARRAPAGTLVEVPGCGHVVQHTGTAQVADAITGFTGLPGSGAPEQTVNRQ,not soluble
8,MAVPVRHLVAVTACVSGVAHTYMAAERLEKLCQQEKWSIKIETQGALGTENRLTEEDIRRADVVLLITDIELAGVERFTRSRYVQSGISAFLREPQRVMSAVRKLLSAPQHTHLILE,not soluble
9,MSLKEELQLKQKLGGQKMVIQGDTLENSARRLLQERGVTMNDLAELVLFLQKDYIDNLTLDTCLESVDAVLTKREVHNAIITGVQLDILAEENKLLSPLQEILTEDEGLYGIDEIMALSIVNVYGSIGFTNYGYIDKVKPGILKELNAHDGEHVHTFLDDIVGAIAAAAASRLAHSQPDLSDITKEGGSHHHHHH,soluble
10,MGSDKIHHHHHHMSIMNSLLQQKETVVKGWLTYYVSVDDPYVFALKDDHRLMDETGFVLENLFIGMTEDLAKMNTFARELGKAQFITSLGISRILFHIRLLEEFLLDYASEINAECNNYRELYLFSIKLHQVFSSFTQHLIEGYTLATEQLVQQKENQIIKSSTKLIWLAEKVFLLPLIGKITDERAKQITETALFETCEQPVNYLIIDLSGVQFDSANIGEYIEHFFSSLKLVGVTPIITGMQPETAKIMVQANLTEQKGIKTFATLRQATKSLIKEKEARNAIK,not soluble
11,MDSKILTMFNQGKHEEAIQAAVKAIDAAPDDPKRYAMLATMLISIKALDQAGELLAKARQLFPEDLELQYTAGLFAYAQADFAAAVSWFAKVRTDQTLKNDATYMLALSYQQAGQPTKALAFALTAHDLAPKQLDTALLAADLLMANDVFDAAARVLKPLLATEQPQVLFTYGMALSAAGKDGSHYLNKAKALDPKGYDQKANIVADINRFLRLQEGQDGHALEHHHHHH,soluble
12,MAPSSRWDAMGPKNSYRSVHGRIVPELLESSVARVRPLQYVQRQPSQASARSGANPTHRPSAEVRPVIRTGEMTHSSVIPPLAPGVRRVSLGYESSPSGSLPPLFNQESPWRRQDSYSPQNPAVSHKASLNSTILQGPADAGVVGGQSWNRAWEPARGAASWDTWRNKAVVPPRRSGEPMVSMQAAEEIRILAVITIQAGVRGYLARRRIRLWHRGAMVIQATWRGYRVRRNLAHLCRATTTIQSAWRGYSTRRDQARHWQMLHPVTWVELGSRAGVMSDRSWFQDGRARTVSDHRCFQSCQAHACSVCHSLSSRIGSPPSVVMLVGSSPRTCHTCGRTQPTRVVQGMGQGTEGPGAVSWASAYQLAALSPRQPHRQDKAATAIQSAWRGFKIRQQMRQQQMAAKIVQATWRGHHTRSCLKNTEALLGPADPSASSRHMHWPGI,not soluble
13,MDTIAFAYMGGKEYEWLFFEVYDRVRRFYRDVRLPINIVYAGKIILPPGTLIRVETASGFVNMYSFEAVVEALYGKLVEMRDDVNDDSITKIFGITTFPIGSRDRYFDIYKKYLGIQVNVGDYHVLALSIKPFFTENKYLFIERVFKGVLHEIGHLYGLSHCHEDCVMNPPKDIKDWDLRTPTYCNTCLRKLKNKEELMPKLQLLEHHHHHH,soluble
14,MGKLLTMAMPKGRIFEEAAGLLRQAGYRLPEEFEDSRKLIIDVPEENLRFILAKPMDVTTYVEHGVADVGIAGKDVMLEEERDVYEVLDLNISKCHLAVAGLPNTDWSGVAPRIATKYPNVASSYFREQGEQVEIIKLNGSIELAPLIGLADRIVDIVSTGQTLKENGLVETEHICDITSRFIVNPVSYRMKDDVIDEMASRLSLVVEGETAKLEHHHHHH,soluble
15,DSYPDSQIEIRTLVGPYENTLVFRDTGPGIDDSILHKIFDDFFSFQKSGGSGLGLGYCQRVMRSFGGRIECKSVTNEFTEFYLHFPVVPNAPKVETLRTPNFYNWNQKVKTK,not soluble
16,NGGTSKTVKFERFEDYNGPKPARAKNMVWQIIPDASTRTNALQSKSVQAIDSVPYLSIDQLKGTHTVESVQGFGLLFAMFNNDKSNPFSDLKNRQAFLYGIDMDKVIKTALLGQATAPTSFLHKEHPQYHEAKVVYSHDAEKAKALFKETGLTKLRMLCTDHDWVKKCTPLIQESLTALGIQVDFTEKKSSDVYNTIDGKPEAYDVVIAPGDPSVFGTDPDLLMRWWYSGDTWTDTRMHWKGTEAYAKLQEVLDAGLAATSESEQKNKWHEALDIISENVPLYPLLHRKAPTAWDASTLVDFKPISLTGLSFSGVGTTQ,not soluble
17,MSLKTMSDTSEIIFSNYGIYDLGDNLELLLPNTLIKFQRISDNAFSYFRENSEGQIIEKIIPVKSNDIKIELAPIRPLNHPAKRTNYVFLKLDKEIHLGENSAASIFVHCPIEIGIFLIYGDNHEPLDWITCNPLNSRFSLYGSPDTGTLCKYAEVSLATDYNDSVSYVNGVMHIVIENTLSFAQTISKVIFPITDNNLYYKDSKSIVDGIKIIMKKRAAVNIAEIKPTLVDTEWTQAPAWDNSIDSVHHMEMTLEEGHHHHHH,soluble
18,SNAQVEVIVMMHGRSTATSMVETVQELLSIESGIALDMPLTVEVKAMYEKLKQTVVKLNPVKGVLILSDMGSLTSFGNILTEELGIRTKTVTMVSTPVVLEAMRKASLGRGLEDIYQSCEQLFENKYKAH,soluble
